{
  "source": "patent US20090111745A1",
  "binders": {"B1": {"name": "DOM7h-8cys/FITC conjugate (protein)", "VL": "DIQMTQSPSSLSASVGDRVTITCRASQSISSYLNWYQQKPGKAPKLLIYRNSPLQSGVPSRFSGSGSGTDFTLTISSLQPEDFATYYCQQTYRVPPTFGQGTKVEIKC", "modifications": "not checked"}},
  "molecular_target": "human serum albumin (human), P02768",
  "test": "sandwich ELISA, HSA coated at 10 µg/ml, conjugate at 1 µM, detection with anti-FITC antibody",
  "data": [
    {"binder": "B1", "values": [
      {"measurement": "OD600", "value": 0.38, "unit": "OD600"}
    ]}
  ]
}
